Test results from patent US20180208658A1 (EUREKA THERAPEUTICS, published 2018).
Where a chain is given by its changes, count along the chain named.

T1: recombinant AFP protein (UniProt P02771 19-609, limits assumed)
T1 construct: also called AFP recombinant protein
T1 sequence (looked up): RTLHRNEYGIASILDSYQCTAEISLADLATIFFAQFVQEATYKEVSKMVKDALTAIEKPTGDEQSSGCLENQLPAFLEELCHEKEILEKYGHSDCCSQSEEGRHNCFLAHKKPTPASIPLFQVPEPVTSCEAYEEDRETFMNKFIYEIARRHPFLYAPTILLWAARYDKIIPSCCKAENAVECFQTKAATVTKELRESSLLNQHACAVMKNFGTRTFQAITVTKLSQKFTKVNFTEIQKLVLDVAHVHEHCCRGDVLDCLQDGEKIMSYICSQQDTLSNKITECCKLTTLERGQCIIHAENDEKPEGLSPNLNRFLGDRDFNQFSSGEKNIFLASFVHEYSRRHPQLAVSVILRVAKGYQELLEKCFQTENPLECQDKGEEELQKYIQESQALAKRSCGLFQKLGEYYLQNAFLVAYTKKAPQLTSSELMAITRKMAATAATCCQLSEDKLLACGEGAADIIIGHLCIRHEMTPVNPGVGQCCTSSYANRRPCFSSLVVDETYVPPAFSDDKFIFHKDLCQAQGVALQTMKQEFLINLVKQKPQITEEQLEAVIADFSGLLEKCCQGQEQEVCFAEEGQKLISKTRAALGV

B1: AFP158/HLA-A*02:01-specific scFv phage clone #17 (scFv, V domains shown)
VH: EVQLVQSGAEVKKPGASVKVSCKASGYTFTSYGISWVRQAPGQGLEWMGWISAYNGNTNYAQKLQGRVTMTTDTSTSTAYMELRSLRSDDTAVYYCARYQDWWYLGQFDQWGQGTLVTVSS
VL: QSALTQPASVSGSPGQSITISCTATGSDVGVYYYVSWYQQHPGKAPKVMIYDVGNRPPGVSNRFSGSKSGNTASLTISGLQAEDEADYYCASYTNRNSLGYVFGTGTKVTVLG
B2: AFP158/HLA-A*02:01-specific scFv phage clone #17-13 (scFv, V domains shown)
VH: B1 VH with Y99F
VL: B1 VL with G54D
notes: also called AM1402-17-13
B3: AFP158/HLA-A*02:01-specific scFv phage clone #33 (scFv, V domains shown)
VH: QVQLQQSGPGLVKPSQTLSLTCAISGDSVSSNSAAWNWIRQSPSRGLEWLGRTYYRSKWYNDYAVSVKSRITINPDTSKNQFSLQLNSVTPEDTAVYYCARGSYYSGRYDAWGQGTLVTVSS
VL: NFMLTQPHSVSESPGKTVTISCTRSSGSIASNYVQWYQQRPGSSPTTVIYEDNQRPSGVPDRFSGSIDSSSNSASLTISGLKTEDEADYYCQSYDSSTVVFGGGTKLTVLG
B4: AFP158/HLA-A*02:01-specific scFv phage clone #48 (scFv, V domains shown)
VH: EVQLVESGGGLVQPGRSLRLSCAASGFTFDDYAMHWVRQAPGKGLEWVSGISWNSGRIGYADSVKGRFTISRDNAKNSLYLQMNSLRAEDTAVYYCARADDYGAPYYYYGMDVWGQGTTVTVSS
VL: QSVLTQPPSVSGAPGQRVTISCTGSSSNIGAGYDVHWYQQLPGTAPKLLIYGNSNRPSGVPDRFSGSKSGTSASLAITGLQAEDEADYYCQSYDSSLSGSVFGTGTKVTVLG
B5: #44 (scFv, V domains shown, not shown: large carriers; small tags and cut ends)
VH: QVQLVQSGAEVKKPGSSVKVSCKASGGTFSSYAISWVRQAPGQGLEWMGGIIPIFGTANYAQKFQGRVTITADESTSTAYMELSSLRSEDTAVYYCAREIRGYYYYYGMDVWGQGTTVTVSS
VL: SYELTQPPSVSVAPGKTARITCGGDNIGTKSVTWYQQRPGQAPMMVIYYDTVRPSGIPERLSGSNSGNTATLTITRVEAGDEADYYCQVWDSSSDHPVFGGGTKLTVL
notes: also called Clone 44; AFP158/HLA-A*02:01-specific scFv phage clone #44; copies: 1 + 1
B6: full-length AFP158 mouse chimeric IgG1 antibody 1402-79 (antibody, V domains shown)
VH: QMQLVQSGGGLVQPGRSLRLSCAASGFTFDDYAMHWVRQAPGKGLEWVSGISWNSGSIGYADSVKGRFTISRDNAKNSLYLQMNSLRAEDTALYYCAKDIHSGSYYGLLYYAMDVWGQGTTVTVSS
VL: QSVLTQPPSVSGAPGQRVTISCTGSSSNIGAGYDVHWYQQLPGTAPKLLIFGNSNRPSGVPDRFSGFKSGTSASLAITGLQAEDEADYFCQSYDSSLSGSGVFGTGTKVTVLG
notes: bivalent IgG
B7: full-length AFP158 mouse chimeric IgG1 antibody 1402-61 (antibody, V domains shown)
VH: EVQLVQSGAEVKKPGESLTISCKASGYSFPNYWITWVRQMSGGGLEWMGRIDPGDSYTTYNPSFQGHVTISIDKSTNTAYLHWNSLKASDTAMYYCARYYVSLVDIWGQGTLVTVSS
VL: QSVLTQPASVSGSPGQSITISCTGTSSDVGGYNYVSWYQQHPGKAPKLMIYDVNNRPSEVSNRFSGSKSGNTASLTISGLQAEDEADYYCSSYTTGSRAVFGGGTKLTVLG
notes: bivalent IgG
B8: #50 (scFv, V domains shown, not shown: large carriers; small tags and cut ends)
VH: QVQLQESGPGLVKPSGTLSLTCAVSGGSISSSNWWSWVRQPPGKGLEWIGEIYHSGSTNYNPSLKSRVTISVDKSKNQFSLKLSSVTAADTAVYYCATGYGGYFDYWGQGTLVTVSS
VL: QSVLTQPPSVSVAPGKTARITCGGNNIGSKSVHWYQQKPGQAPVLVIYYDSDRPSGIPERFSGSNSGNTATLTISRVEAGDEADYYCQVWDSSSDHVVFGGGTKLTVL
notes: also called Clone 50; AFP158/HLA-A*02:01-specific scFv phage clone #50; copies: 1 + 1
B9: full-length AFP158 mouse chimeric IgG1 antibody 1402-76 (antibody, V domains shown)
VH: EVQLVESGGGLVKPGGSLRLSCAASGFTFSNAWMSWVRQAPGKGLEWVGFIRSKAYGGTTEYAASVKGRFTISRDDSKSIAYLQMNNLKTEDTAVYYCARDGLYSSSWYDSDYWGQGTLVTVSS
VL: QSVVTQPPSVSAAPGQKVTISCSGSSSNIGNNYVSWYQQLPGTAPKLLIYDNNKRPSGIPDRFSGSKSGTSATLGITGLQTGDEADYYCGTWDGSLYTMLFGGGTKLTVLG
notes: bivalent IgG

Legend:
[1] = molecular target: T2, mouse AFP158 peptide/HLA-A*02:01 complex on T2 cells (human; mouse); test: FACS, phage clone on peptide-loaded T2 cells
T2 construct: also called mouse AFP158-loaded T2 cells

[2] = molecular target: T3, AFP158/HLA-A*02:01 complex presented on cells (human); test: FACS, phage clone on peptide-loaded T2 cells
T3 construct: the cell line used is named under assay in each row; also called AFP158-loaded T2 cells; human AFP158-loaded T2 cells

[3] = molecular target: T4, hAFP158 A7 peptide (…)/HLA-A*02:01 on T2 cells (human); test: FACS, scFv phage clone on peptide-loaded T2 cells
T4 construct: also called Ala Position 7
Protocol: (§1) Antibody phage clones were then tested for binding to these peptide-loaded T2 cells by FACS analysis.

[4] = molecular target: T5, hAFP158 A3 peptide (…)/HLA-A*02:01 on T2 cells (human); test: FACS, scFv phage clone on peptide-loaded T2 cells
T5 construct: also called Ala Position 3
Protocol: as §1

[5] = molecular target: T6, hAFP158 A1 peptide (…)/HLA-A*02:01 on T2 cells (human); test: FACS, scFv phage clone on peptide-loaded T2 cells
T6 construct: also called Ala Position 1
Protocol: as §1

[6] = molecular target: T7, hAFP158 A5 peptide (…)/HLA-A*02:01 on T2 cells (human); test: FACS, scFv phage clone on peptide-loaded T2 cells
T7 construct: also called Ala Position 5
Protocol: as §1

[7] = molecular target: T8, hAFP158 A4 peptide (…)/HLA-A*02:01 on T2 cells (human); test: FACS, scFv phage clone on peptide-loaded T2 cells
T8 construct: also called Ala Position 4
Protocol: as §1

[8] = molecular target: T9, hAFP158 A8 peptide (…)/HLA-A*02:01 on T2 cells (human); test: FACS, scFv phage clone on peptide-loaded T2 cells
T9 construct: also called Ala Position 8
Protocol: as §1

[9] = molecular target: T3, AFP158/HLA-A*02:01 complex presented on …; test: FACS, scFv phage clone on peptide-loaded T2 cells
Protocol: as §1

[10] = molecular target: T10, hAFP158 A6 peptide (…)/HLA-A*02:01 on T2 cells (human); test: FACS, scFv phage clone on peptide-loaded T2 cells
T10 construct: also called Ala Position 6
Protocol: as §1

[11] = molecular target: T3, AFP158/HLA-A*02:01 complex presented on …; test: FACS of scFv phage on AFP158 peptide-loaded T2 cells, anti-M13 mAb and R-PE anti-mouse IgG
Protocol: (§2) Specific and unique clones were further tested for their binding to HLA-A2/peptide complexes on live cell surfaces by flow cytometry (FACS analysis) using AFP158-loaded live T2 cells. T2 cells loaded with different peptides and β2M were first stained with purified scFv phage clones, followed by staining with a mouse anti-M13 mAb, and finally the R-PE conjugated horse anti-mouse IgG from Vector Labs. Each step of the staining was done between 30-60 minutes on ice and the cells were washed twice between staining.

[12] = molecular target: T11, hTERT540 peptide (…)/HLA-A*02:01 on T2 cells (human); test: FACS of scFv phage on hTERT peptide-loaded T2 cells
T11 construct: control peptide-MHC; also called β2M/hTERT peptide-loaded T2 cells
Protocol: as §2

[13] = molecular target: T12, HLA-A*02:01 on T2 cells with β2M but without peptide loaded (human); test: FACS of scFv phage on β2M-loaded T2 cells without peptide
T12 construct: control without added peptide; also called β2M-loaded T2 cells
Protocol: as §2

[14] = molecular target: T2, mouse AFP158 peptide/HLA-A*02:01 …; test: FACS of scFv phage on mouse AFP158 peptide-loaded T2 cells
[15] = molecular target: T1, recombinant AFP protein; test: ELISA on AFP protein coated at 2 µg/mL
Protocol: Antibodies were tested at 3× serial dilution, starting from 100 ng/mL, for a total of 8 concentrations. Biotinlyated AFP158/A*02:01 MHC was coated onto streptavidin plates at 2 μg/mL, AFP protein was coated at 2 μg/mL and AFP158 peptide was coated at 40 ng/mL.

Row | Binder | binding result [1] | binding result [11] | binding result [12] | binding result [13] | binding result [15] | further results
1 | B1 | binds | – | – | – | – | binding result [2]: binds
2 | B2 | – | – | – | – | – | FACS binding signal (name and unit not given) [3]: 572; FACS binding signal (name and unit not given) [4]: 2910; FACS binding signal (name and unit not given) [5]: 55600; FACS binding signal (name and unit not given) [6]: 1500; FACS binding signal (name and unit not given) [7]: 50800; FACS binding signal (name and unit not given) [8]: 43200; FACS binding signal (name and unit not given) [9]: 83300; FACS binding signal (name and unit not given) [10]: 28800
3 | B3 | binds | binds | no binding | no binding | – | –
4 | B4 | binds | binds | no binding | no binding | – | –
5 | B5 | – | binds | no binding | no binding | – | binding result [14]: no binding
6 | B6 | – | – | – | – | no binding (tested: 100 ng/mL) | –
7 | B7 | – | – | – | – | no binding (tested: 100 ng/mL) | –
8 | B8 | – | binds | no binding | no binding | – | –
9 | B9 | – | – | – | – | no binding (tested: 100 ng/mL) | –
